According to US20180244762A1 (KODIAK SCIENCES, published 2018):

B1: rhVEGFA-165 (ligand, human, UniProt P15692-4 27-191, looked up)
chain: APMAEGGGQNHHEVVKFMDVYQRSYCHPIETLVDIFQEYPDEIEYIFKPSCVPLMRCGGCCNDEGLECVPTEESNITMQIMRIKPHQGQHIGEMSFLQHNKCECRPKKDRARQENPCGPCSERRKHLFVQDPQTCKCSCKNTDSRCKARQLELNERTCRCDKPRR
modifications: biotinylated in Example 34
B2: aflibercept (Fc fusion, UniProt P17948 129-230, looked up, not shown: a dimerising Fc or GST)
chain: SDTGRPFVEMYSEIPEIIHMTEGRELVIPCRVTSPNITVTLKKFPLDTLIPDGKRIIWDSRKGFIISNATYKEIGLLTCEATVNGHLYKTNYLTHRQTNTIIDVVLSPSHGIELSVGEKLVLNCTARTELNVGIDFNWEYPSSKHQHKKLVNRDLKTQSGSEMKKFLSTLTIDGVTRSDQGLYTCAASSGLMTKKNSTFVRVHEK

What was measured:
aflibercept = target: B2; test: optical biosensor (Proteon XPR36 / Biacore 2000), binder amine-coupled, rhVEGFA-165 injected, 25 C
Description: (§1) Binding studies were performed at 25° C. and 37° C. using BioRad Proteon XPR36 and Biacore 2000 optical biosensors equipped with GLM (Proteon) and CM4 (Biacore) sensor chips and equilibrated with running buffer (10 m/M HEPES, 150 mM NaCl, 0.005% Teen-20, 0.2 mg/ml BSA).
Binding of the coupled proteins to the ligands was determined by standard methodology.

rhVEGFA-165 = target: B1; test: cell-based or functional assay
[1] = target: T1, recombinant human PDGF-BB (human, UniProt P01127 82-190); test: optical biosensor (Proteon XPR36 / Biacore 2000), binder amine-coupled, rhPDGF-BB injected, 25 C
T1 construct: also called rhPDGF-BB; rhPDGFBB
T1 sequence (P01127 82-190): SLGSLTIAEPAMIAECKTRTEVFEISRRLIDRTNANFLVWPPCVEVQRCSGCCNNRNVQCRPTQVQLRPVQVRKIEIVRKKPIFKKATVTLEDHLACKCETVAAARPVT
Description: as §1

[2] = target: T1, recombinant human PDGF-BB; test: SPR (Biacore T200, 25 C), binder captured by anti-human IgG, PDGF-BB as analyte, run B
Description: (§2) Each PDGF/VEGF variant was captured to a level of approximately 150 RUs. The running and sample buffer for the PDGF analysis was HBS-EP+300mM NaCl (10 mM 4-(2-hydroxyethyl)-1-piperazineethanesulfonic acid (HEPES) pH 7.4, 300 mM NaCl, 3mM ethylenediaminetetraacetic acid (EDTA), 0.05% (v/v) Tween-20). […] The surface was then regenerated with a 30 second pulse of 3M MgCl₂, a 30 second pulse of an ionic regeneration buffer (0.46M KSCN, 1.83 M MgCl2, 0.92 M urea, and 1.83 M guanidine-HCI pH7.4, Andersson et al., Analytical Chemistry, 1999) and then equilibrated with a 30 second pulse of HBS-EP+ 300 mM NaCl running buffer.
(§3) All SPR assays were performed at 25° C. with a data collection rate of1Hz using a Biacore T200 instrument (GE Healthcare). The resulting PDGP and VEGP sensorgrams were double referenced using both a control surface and buffer injections. The rate constants were determined by fitting the data to a 1:1 Langmuir model with Biacore T200 evaluation software v2.0 and the equation […].

[3] = target: T1, recombinant human PDGF-BB; test: SPR (Biacore T200, 25 C), binder captured by anti-human IgG, PDGF-BB as analyte, run A
Description: as §2, §3

[4] = target: T1, recombinant human PDGF-BB; test: SPR (Biacore T200, 25 C), binder captured by anti-human IgG, PDGF-BB as analyte, average +/- SD of the runs
Description: as §2, §3

[5] = target: T1, recombinant human PDGF-BB; test: cell-based or functional assay
[6] = target: T1, recombinant human PDGF-BB; test: competitive ELISA: binder preincubated with 0.2 nM rhPDGF-BB, competitor immobilized PDGFR/Fc
[7] = target: T1, recombinant human PDGF-BB; test: SPR (Biacore T200, 25 C), binder captured by anti-human IgG, PDGF-BB as analyte, run C
Description: as §2, §3

| Binder | Kd (aflibercept) | Inhibition of VEGF induced proliferation of HRMVECs, IC50 (rhVEGFA-165) | Kd [1] | Kd [2] | koff [2] | kon [2] | t½ [2] | Kd [3] | koff [3] | kon [3] | t½ [3] | Kd [4] | Inhibition of PDGF induced proliferation of HPVPs, IC50 [5] | IC50 [6] | Kd [7] | koff [7] | kon [7] | t½ [7] |
| --- | --- | --- | --- | --- | --- | --- | --- | --- | --- | --- | --- | --- | --- | --- | --- | --- | --- | --- |
| B1 | 1.56 pM | – | – | – | – | – | – | – | – | – | – | – | – | – | – | – | – | – |
| B2 | – | 550 pM | – | – | – | – | – | – | – | – | – | – | – | – | – | – | – | – |
| TAF443 (PDGFRβ-GS10-anti-VEGF-A heavy chain (L443C)/anti-VEGF-A light chain) (other, also called OG1321; TAF-443C) heavy: LVVTPPGPELVLNVSSTFVLTCSGSAPVVWERMSQEPPQEMAKAQDGTFSSVLTLTNLTGLDTGEYFCTHNDSRGLETDERKRLYIFVPDPTVGFLPNDAEELFIFLTEITEITIPCRVTDPQLVVTLHEKKGDVALPVPYDHQRGFSGIFEDRSYICKTTIGDREVDSDAYYVYRLQVSSINVSVNAVQTVVRQGENITLMCIVIGNEVVNFEWTYPRKESGRLVEPVTDFLLDMPYHIRSILHIPSAELEDSGTYTCNVTESVNDHQDEKAINITVVESGGGGGSGGGGSEVQLVESGGGLVQPGGSLRLSCAASGYDFTHYGMNWVRQAPGKGLEWVGWINTYTGEPTYAADFKRRFTFSLDTSKSTAYLQMNSLRAEDTAVYYCAKYPYYYGTSHWYFDVWGQGTLVTVSSASTKGPSVFPLAPSSKSTSGGTAALGCLVKDYFPEPVTVSWNSGALTSGVHTFPAVLQSSGLYSLSSVVTVPSSSLGTQTYICNVNHKPSNTKVDKKVEPKSCDKTHTCPPCPAPEAAGAPSVFLFPPKPKDTLMISRTPEVTCVVVDVSHEDPEVKFNWYVDGVEVHNAKTKPREEQYNSTYRVVSVLTVLHQDWLNGKEYKCKVSNKALPAPIEKTISKAKGQPREPQVYTLPPSREEMTKNQVSLTCLVKGFYPSDIAVEWESNGQPENNYKTTPPVLDSDGSFFLYSKLTVDKSRWQQGNVFSCSVMHEALHNHYTQKSLSCSPGK light: not shown | – | – | 14 pM | 1.56 pM | 8.76e-05 s⁻¹ | 5.62e+07 M⁻¹ s⁻¹ | 2.2 h | 1.54 pM | 4.96e-05 s⁻¹ | 3.22e+07 M⁻¹ s⁻¹ | 3.89 h | 1.55 pM | 5000 pM | 46 pM | – | – | – | – |
| TAF443-6A250K (other, polymer conjugate, label 6A250K; polymer and attachment site not described for this conjugate, also called R3643-6A) heavy: LVVTPPGPELVLNVSSTFVLTCSGSAPVVWERMSQEPPQEMAKAQDGTFSSVLTLTNLTGLDTGEYFCTHNDSRGLETDERKRLYIFVPDPTVGFLPNDAEELFIFLTEITEITIPCRVTDPQLVVTLHEKKGDVALPVPYDHQRGFSGIFEDRSYICKTTIGDREVDSDAYYVYRLQVSSINVSVNAVQTVVRQGENITLMCIVIGNEVVNFEWTYPRKESGRLVEPVTDFLLDMPYHIRSILHIPSAELEDSGTYTCNVTESVNDHQDEKAINITVVESGGGGGSGGGGSEVQLVESGGGLVQPGGSLRLSCAASGYDFTHYGMNWVRQAPGKGLEWVGWINTYTGEPTYAADFKRRFTFSLDTSKSTAYLQMNSLRAEDTAVYYCAKYPYYYGTSHWYFDVWGQGTLVTVSSASTKGPSVFPLAPSSKSTSGGTAALGCLVKDYFPEPVTVSWNSGALTSGVHTFPAVLQSSGLYSLSSVVTVPSSSLGTQTYICNVNHKPSNTKVDKKVEPKSCDKTHTCPPCPAPEAAGAPSVFLFPPKPKDTLMISRTPEVTCVVVDVSHEDPEVKFNWYVDGVEVHNAKTKPREEQYNSTYRVVSVLTVLHQDWLNGKEYKCKVSNKALPAPIEKTISKAKGQPREPQVYTLPPSREEMTKNQVSLTCLVKGFYPSDIAVEWESNGQPENNYKTTPPVLDSDGSFFLYSKLTVDKSRWQQGNVFSCSVMHEALHNHYTQKSLSCSPGK light: not shown | – | – | – | 1.04 pM | 5.85e-05 s⁻¹ | 5.62e+07 M⁻¹ s⁻¹ | 3.29 h | 1.25 pM | 9.46e-05 s⁻¹ | 7.6e+07 M⁻¹ s⁻¹ | 2.03 h | 1.3 pM | – | – | 1.47 pM | 5.13e-05 s⁻¹ | 3.48e+07 M⁻¹ s⁻¹ | 3.76 h |
| TAF (PDGFRβ-GS10-anti-VEGF-A heavy chain/anti-VEGF-A light chain) (other, Glycosylated PDGFR segment. The molecule is a dimer of two fusion heavy chains and two light chains., PDGFR-beta trap fused to the N-terminus of an anti-VEGF-A IgG1 heavy chain; also called TAF-WT; TAFwt) heavy: LVVTPPGPELVLNVSSTFVLTCSGSAPVVWERMSQEPPQEMAKAQDGTFSSVLTLTNLTGLDTGEYFCTHNDSRGLETDERKRLYIFVPDPTVGFLPNDAEELFIFLTEITEITIPCRVTDPQLVVTLHEKKGDVALPVPYDHQRGFSGIFEDRSYICKTTIGDREVDSDAYYVYRLQVSSINVSVNAVQTVVRQGENITLMCIVIGNEVVNFEWTYPRKESGRLVEPVTDFLLDMPYHIRSILHIPSAELEDSGTYTCNVTESVNDHQDEKAINITVVESGGGGGSGGGGSEVQLVESGGGLVQPGGSLRLSCAASGYDFTHYGMNWVRQAPGKGLEWVGWINTYTGEPTYAADFKRRFTFSLDTSKSTAYLQMNSLRAEDTAVYYCAKYPYYYGTSHWYFDVWGQGTLVTVSSASTKGPSVFPLAPSSKSTSGGTAALGCLVKDYFPEPVTVSWNSGALTSGVHTFPAVLQSSGLYSLSSVVTVPSSSLGTQTYICNVNHKPSNTKVDKKVEPKSCDKTHTCPPCPAPEAAGAPSVFLFPPKPKDTLMISRTPEVTCVVVDVSHEDPEVKFNWYVDGVEVHNAKTKPREEQYNSTYRVVSVLTVLHQDWLNGKEYKCKVSNKALPAPIEKTISKAKGQPREPQVYTLPPSREEMTKNQVSLTCLVKGFYPSDIAVEWESNGQPENNYKTTPPVLDSDGSFFLYSKLTVDKSRWQQGNVFSCSVMHEALHNHYTQKSLSLSPGK light: not shown | – | – | – | 1.15 pM | 9.19e-05 s⁻¹ | 8.01e+07 M⁻¹ s⁻¹ | 2.09 h | 1.01 pM | 8.01e-05 s⁻¹ | 7.97e+07 M⁻¹ s⁻¹ | 2.4 h | 1.1 pM | – | – | 1.19 pM | 0.000103 s⁻¹ | 8.65e+07 M⁻¹ s⁻¹ | 1.87 h |
| TAF347 (PDGFRβ-GS10-anti-VEGF-A heavy chain (Q347C)/anti-VEGF-A light chain) (other, Same as TAF except for Q347C (EU numbering); also called TAF-347C) heavy: LVVTPPGPELVLNVSSTFVLTCSGSAPVVWERMSQEPPQEMAKAQDGTFSSVLTLTNLTGLDTGEYFCTHNDSRGLETDERKRLYIFVPDPTVGFLPNDAEELFIFLTEITEITIPCRVTDPQLVVTLHEKKGDVALPVPYDHQRGFSGIFEDRSYICKTTIGDREVDSDAYYVYRLQVSSINVSVNAVQTVVRQGENITLMCIVIGNEVVNFEWTYPRKESGRLVEPVTDFLLDMPYHIRSILHIPSAELEDSGTYTCNVTESVNDHQDEKAINITVVESGGGGGSGGGGSEVQLVESGGGLVQPGGSLRLSCAASGYDFTHYGMNWVRQAPGKGLEWVGWINTYTGEPTYAADFKRRFTFSLDTSKSTAYLQMNSLRAEDTAVYYCAKYPYYYGTSHWYFDVWGQGTLVTVSSASTKGPSVFPLAPSSKSTSGGTAALGCLVKDYFPEPVTVSWNSGALTSGVHTFPAVLQSSGLYSLSSVVTVPSSSLGTQTYICNVNHKPSNTKVDKKVEPKSCDKTHTCPPCPAPEAAGAPSVFLFPPKPKDTLMISRTPEVTCVVVDVSHEDPEVKFNWYVDGVEVHNAKTKPREEQYNSTYRVVSVLTVLHQDWLNGKEYKCKVSNKALPAPIEKTISKAKGQPREPCVYTLPPSREEMTKNQVSLTCLVKGFYPSDIAVEWESNGQPENNYKTTPPVLDSDGSFFLYSKLTVDKSRWQQGNVFSCSVMHEALHNHYTQKSLSLSPGK light: not shown | – | – | – | 1.35 pM | 7.87e-05 s⁻¹ | 5.82e+07 M⁻¹ s⁻¹ | 2.45 h | 2.03 pM | 8.41e-05 s⁻¹ | 4.15e+07 M⁻¹ s⁻¹ | 2.29 h | 1.7 pM | – | – | – | – | – | – |
